Experimental data reported in patent US20220024992A1, “COMPOSITIONS AND METHODS COMPRISING LYSOCINS AS BIOENGINEERED ANTIMICROBIALS FOR USE IN TARGETING GRAM-NEGATIVE BACTERIA” (The Rockefeller University, priority 2018, published 2022).
Converted amounts (≈) assume the structure as drawn. Where two headings read alike, the source gives them in different places.

What was measured:
P. aeruginosa strains [1] = test: MIC and MBC, modified CLSI broth microdilution, CAA medium; assay type: cell-based; conditions: strain 453, FpvA type I
Procedure: The MIC and MBC values were calculated using a modified version of the broth microdilution assay as previously described by the Clinical and Laboratory Standards Institute (CLSI) (45). The specific modifications were to the bacterial concentration and growth medium used. […] CAA medium was used for Gram-negative bacteria to simulate low iron conditions. Alternatively, MHB was used for Gram-positive bacteria due to their inability to grow in CAA medium. Bacterial growth was assessed by measuring the OD600 nm using a SpectraMax M5 microplate reader (Molecular Devices). The MIC was defined as the lowest antimicrobial concentration that inhibits bacterial growth. To determine the MBC, the contents from each well originating from the MIC microtiter plate was plated on CAA agar to quantitate bacterial viability. The MBC was defined as the lowest antimicrobial concentration required to kill ≥99.9% of the initial bacterial inoculum. Growth and sterility controls were included.

[2] = tested on: pseudomonal PG (autoclaved P. aeruginosa); test: Muralytic plate lysis assay on autoclaved Pseudomonas; assay type: biochemical; conditions: 25 pmol spotted
[3] = target: ferripyoverdine A type I (FpvAI) receptor (Pseudomonas aeruginosa) (UniProt P48632); test: cell-based or functional assay
[4] = target: FpvAIII receptor (Pseudomonas aeruginosa); test: cell-based or functional assay
[5] = target: FpvAII receptor (Pseudomonas aeruginosa); test: cell-based or functional assay
P. aeruginosa strain 453 = test: Cell viability assays with 0.5 μM antimicrobial
Procedure: P. aeruginosa strain 453 were grown under iron-depleted conditions (see Bacterial Strains and Growth Conditions). The bacteria were harvested, washed and resuspended in fresh CAA medium with 0.5 mg/ml EDDHA. Using a 96-well flat-bottomed microtiter plate, the bacteria at ˜10^6 CFU/ml were incubated statically at 37° C. with either growth medium only (untreated control) or 0.5 μM purified antimicrobial. A 2 h incubation was used for the single time point experiments, whereas a 4 or 6 h incubation was used for the multiple time point assays. At various time points, an aliquot was removed from each sample, serially diluted and plated on CAA agar. After incubating the agar plates for up to 48 h at 37° C., colonies were counted in order to quantitate the CFU/ml concentration of surviving bacterial cells. Modifications were introduced to the aforementioned cell viability assay protocol for the experiment using P. aeruginosa grown in the presence of varying free iron concentrations. First, P. aeruginosa strain 453 were grown using iron-depleted or iron-rich conditions (CAA medium supplemented with 100 μM FeSO4) at 37° C. with aeration for a total of 16-18 h and subsequently assayed for lysocin sensitivity in PBS, pH 7.4. For the experiment analyzing lysocin activity in the presence of lung surfactant or serum, P. aeruginosa were incubated with or without lysocin in beractant ([sequence]; Abbvie) or HuS diluted 1:1 with 20 mM sodium phosphate, pH 7.0.

P. aeruginosa strains [6] = test: MIC, CLSI broth microdilution in CAA medium with EDDHA
Procedure: The FpvA receptor type for all P. aeruginosa strains used was determined using multiplex PCR, as previously described (67). […] CAA medium consisting of 0.5 mg/ml EDDHA was used instead of MHB. All P. aeruginosa strains were initially inoculated in CAA medium and grown overnight at 37° C. with aeration. The bacteria were then pelleted, washed and resuspended in CAA medium with EDDHA. Using a 96-well U-bottom microtiter plate, P. aeruginosa at a final concentration of 5×10^5 CFU/ml were incubated statically at 37° C. with 0.002-256 μg/ml lysocin in CAA medium with EDDHA for a total of 48 h. Growth (bacteria incubated in growth medium absent lysocin) and sterility controls (growth medium only) were included for each dataset. At the culmination of the experiment, each plate was visually inspected for bacterial growth. All samples were assayed in triplicate. The MIC was defined as the lowest concentration of lysocin that inhibited observable bacterial growth.

[7] = Pseudomonas aeruginosa, read-out: MBC
[8] = Pseudomonas aeruginosa, read-out: MIC

Compound | MIC, P. aeruginosa strain 447 (FpvAI) [3] | MIC, P. aeruginosa strain 453 (FpvAI) [3] | MIC, P. aeruginosa strain AR465 (FpvAI) [3] | MIC, P. aeruginosa strain AR469 (FpvAI) [3] | MIC, P. aeruginosa strain AR470 (FpvAI) [3] | MIC, P. aeruginosa strain AR474 (FpvAI) [3] | MIC, P. aeruginosa strain PAO1 (FpvAI) [3] | MIC, P. aeruginosa strain 443 (FpvAIII) [4] | MIC, P. aeruginosa strain 450 (FpvAIII) [4] | MIC, P. aeruginosa strain AR471 (FpvAIII) [4] | MIC, P. aeruginosa strain 445 (FpvAII) [5] | MIC, P. aeruginosa strain 448 (FpvAII) [5] | MIC, P. aeruginosa strain 451 (FpvAII) [5] | MIC, P. aeruginosa strain AR468 (FpvAII) [5] | also measured
C[C@@H](O)[C@H]1C(=O)N2C(C(=O)O)=C(S[C@@H]3CN[C@H](C(=O)N(C)C)C3)[C@H](C)[C@H]12 [Meropenem, meropenem, reference compound] |  |  |  |  |  |  |  |  |  |  |  |  |  |  | MBC (P. aeruginosa strains [1]; [7]): 8 µg/mL (≈ 20.9 µM); MIC (P. aeruginosa strains [1]; [8]): 8 µg/mL (≈ 20.9 µM)
NC[C@H]1O[C@H](O[C@H]2[C@H](O)[C@@H](O[C@H]3O[C@H](CO)[C@@H](O)[C@H](N)[C@H]3O)[C@H](N)C[C@@H]2N)[C@H](N)C[C@@H]1O [Tobramycin, tobramycin, reference compound] |  |  |  |  |  |  |  |  |  |  |  |  |  |  | MBC (P. aeruginosa strains [1]; [7]): 0.25 µg/mL (≈ 0.535 µM); MIC (P. aeruginosa strains [1]; [8]): 0.125 µg/mL (≈ 0.267 µM)
CEWL: Chicken egg white lysozyme, positive control for muralytic activity [reference compound] |  |  |  |  |  |  |  |  |  |  |  |  |  |  | muralytic activity (clearing zones) on autoclaved P. aeruginosa [2]: Clearing zones
PyS2-GN4 lysocin |  |  |  |  |  |  |  |  |  |  |  |  |  |  | MBC, P. aeruginosa strain 453 (FpvA type I) [3]: 0.25 µg/mL; MIC, P. aeruginosa strain 452 (FpvA type I) [3]: 4 µg/mL; MIC, P. aeruginosa strain 453 (FpvA type I) [3]: 0.25 µg/mL; MIC, P. aeruginosa strain MDR-M-3 (FpvA type I) [3]: 2 µg/mL; MIC, P. aeruginosa strain PAO1 (FpvA type I) [3]: 2 µg/mL; MIC, P. aeruginosa strain 443 (FpvA type III) [4]: > 256 µg/mL; MIC, P. aeruginosa strain 450 (FpvA type III) [4]: > 256 µg/mL; MIC, P. aeruginosa strain 445 (FpvA type II) [5]: > 256 µg/mL; MIC, P. aeruginosa strain 446 (FpvA type II) [5]: > 256 µg/mL; MIC, P. aeruginosa strain 448 (FpvA type II) [5]: > 256 µg/mL; MIC, P. aeruginosa strain 449 (FpvA type II) [5]: > 256 µg/mL; MIC, P. aeruginosa strain 451 (FpvA type II) [5]: > 256 µg/mL
PyS2-I-GN3 lysocin | 8 µg/mL | 4 µg/mL | 4 µg/mL | 8 µg/mL | 4 µg/mL | 4 µg/mL | 8 µg/mL | > 256 µg/mL | > 256 µg/mL | > 256 µg/mL | > 256 µg/mL | > 256 µg/mL | > 256 µg/mL | > 256 µg/mL | 
PyS2-I-GN4 lysocin | 4 µg/mL | 0.25 µg/mL | 4 µg/mL | 8 µg/mL | 8 µg/mL | 4 µg/mL | 4 µg/mL | > 256 µg/mL | > 256 µg/mL | > 256 µg/mL | > 256 µg/mL | > 256 µg/mL | > 256 µg/mL | > 256 µg/mL | 
PyS2-I-PlyPa03 lysocin | 4 µg/mL | 0.25 µg/mL | 2 µg/mL | 4 µg/mL | 8 µg/mL | 4 µg/mL | 4 µg/mL | > 256 µg/mL | > 256 µg/mL | > 256 µg/mL | > 256 µg/mL | > 256 µg/mL | > 256 µg/mL | > 256 µg/mL | 
PyS2-I-PlyPa03: PyS2 aa 1-209, GSx3 linker, P. aeruginosa lysin PlyPa03 (aa 2-144) |  |  |  |  |  |  |  |  |  |  |  |  |  |  | muralytic activity (clearing zones) on autoclaved P. aeruginosa [2]: degraded pseudomonal PG; decrease in viability of Pseudomonas (P. aeruginosa strain 453; 1 h, iron-chelated CAA medium): 3.6 log10; killing of Pseudomonas (P. aeruginosa strain 453; 2 h, 50% HuS): 4.5 log10; killing of P. aeruginosa (P. aeruginosa strain 453; 2 h, 50% beractant (SURVANTA)): 3.6 log10; killing of P. aeruginosa (P. aeruginosa strain 453; 4 h, iron-chelated CAA medium): 6.2 log10; activity towards strains (P. aeruginosa strains [6]; P. aeruginosa strains expressing FpvAII and FpvAIII): ineffective; MIC (P. aeruginosa strains [6]; strain 443, FpvAIII): >256 µg/mL; MIC (P. aeruginosa strains [6]; strain 445, FpvAII): >256 µg/mL; MIC (P. aeruginosa strains [6]; strain 447, FpvAI): 4 µg/mL; MIC (P. aeruginosa strains [6]; strain 448, FpvAII): >256 µg/mL; MIC (P. aeruginosa strains [6]; strain 450, FpvAIII): >256 µg/mL; MIC (P. aeruginosa strains [6]; strain 451, FpvAII): >256 µg/mL; MIC (P. aeruginosa strains [6]; strain 453, FpvAI): 0.25 µg/mL; MIC (P. aeruginosa strains [6]; strain AR465, FpvAI): 2 µg/mL; MIC (P. aeruginosa strains [6]; strain AR468, FpvAII): >256 µg/mL; MIC (P. aeruginosa strains [6]; strain AR469, FpvAI): 4 µg/mL; MIC (P. aeruginosa strains [6]; strain AR470, FpvAI): 8 µg/mL; MIC (P. aeruginosa strains [6]; strain AR471, FpvAIII): >256 µg/mL; MIC (P. aeruginosa strains [6]; strain AR474, FpvAI): 4 µg/mL; MIC (P. aeruginosa strains [6]; strain PAO1, FpvAI): 4 µg/mL
colistin [reference compound] |  |  |  |  |  |  |  |  |  |  |  |  |  |  | MBC (P. aeruginosa strains [1]): 0.5 µg/mL; MIC (P. aeruginosa strains [1]): 0.5 µg/mL
